Measurements from US20160279247A1, “CYCLIC PEPTIDE” (THE SECRETARY OF STATE FOR BUSINESS, INNOVATION & SKILLS OF …, published 2016).
Where no end group is shown, it is not given here.

Target: T1, D2 peptide (C-terminal amide ('am'))
T1 peptide: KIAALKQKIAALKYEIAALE
Test: CD spectroscopy, thermal denaturation of the equimolar mixture (100 uM in each peptide)
Protocol: CD spectra were recorded on an Applied Photosystem Chirascan spectropolarimetre fitted with a Peltier temperature controller. All measurements were taken in ellipticities in mdeg and after baseline correction were converted to mean residue ellipticity (MRE; deg cm² dmol res⁻¹) by normalising for the concentration of peptide bonds and cuvette pathlength. Aqueous peptide solutions (300 μL, 100 μM in each peptide unless stated otherwise) were prepared in filtered (0.22 μm) 10 mM MOPS or phosphate buffer, pH 7.4. To calculate the percent α-helix, the equation, −100([q]₂₂₂+3000)/33 000), was used.
Thermal denaturation curves (solid lines) and their first derivatives (dashed lines) for SaNet (FIG. 8a), D1-D2 (FIGS. 8b) and D1 (FIG. 8c); and CD spectra following the thermal unfolding of D1-D2 (FIGS. 8d) and D1 (FIG. 8e); 10° C. (dotted line) and 90° C. (dashed line) with intervening spectra recorded every 10° C. (solid lines).

transition midpoint of thermal unfolding of the D1+D2 mixture: ~55 ° C.
Binder: EIAALEQEIAALEYKIAALK-NH2 [D1 peptide]
